Article PMC12502629, “The NagY antiterminator in Enterococcus faecalis: a novel regulatory mechanism and its impact on cell metabolism” (Microbiology Spectrum, 2025)

T1: NagY antiterminator (Enterococcus faecalis, UniProt Q834W3 1-277)
T1 construct: NagY transcriptional antiterminator of Enterococcus faecalis, encoded by nagY (ef1515); source: E. coli M15 pRep4 pQE70-nagY, purified (HisTrap HP)
T1 sequence (looked up): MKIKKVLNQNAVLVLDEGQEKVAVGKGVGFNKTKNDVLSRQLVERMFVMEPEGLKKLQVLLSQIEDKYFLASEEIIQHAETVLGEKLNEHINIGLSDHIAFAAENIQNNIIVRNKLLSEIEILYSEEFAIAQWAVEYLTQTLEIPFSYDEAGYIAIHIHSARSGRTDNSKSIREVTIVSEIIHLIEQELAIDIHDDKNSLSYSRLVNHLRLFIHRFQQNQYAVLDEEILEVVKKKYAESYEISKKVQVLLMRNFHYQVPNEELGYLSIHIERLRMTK


Columns and labels:
[1] = system: RNase III (RNase III*);NagY (Enterococcus faecalis V19?;Enterococcus faecalis V19?); test: spectral shift (Monolith X); conditions: RNase III* pre-incubated with NagY (8.5e-6 M), then RNA titrated; 1 mM MgCl2; ES-T buffer: 10 mM Tris pH 8.0, 40 mM NaCl, 10 mM KCl, 1 mM MgCl2, 0.05% Tween-80; room temperature (5 min pre-incubation); RNase III* stock 5e-8 M …
NagY antiterminator = biological target: T1, NagY antiterminator; test: other fluorescence titration; spectral shift (670 nm/650 nm) on Monolith X; RNase III* Cys-labeled at 50·10^-9 M, NagY serially diluted 5.2·10^-10 to 1.7·10^-5 M; ES-T buffer pH 8.0 (10 mM Tris, 40 mM NaCl, 10 mM KCl, 1 mM MgCl2, 0.05% Tween-80); independent triplicates; conditions: both partners purified

| Molecule | Kd [1] [nM] | Kd (NagY antiterminator) [nM] |
| --- | --- | --- |
| 5' nagY RNA | 580 | – |
| RNase III (fluorescence-labeled, RNase III*) (enzyme, Enterococcus faecalis, UniProt Q82ZG1 1-230, looked up, Cys-labeled with Red-Maleimide 2nd Generation dye (degree of labeling 0.1 fluorescent tags per protein unit), RNase III of Enterococcus faecalis, a 26.2 kDa protein encoded by the rnc gene (ef3097); also called ribonuclease RNase III; rnc gene product; source: E. coli M15 pRep4 pQE30-rnc, purified (HisTrap HP)) MDNQLTTELKERYGIVFHDVNLLEQAFTHSSYVNEHRYLKLSDNERLEFLGDAVLELIVSQYLYLKFPELPEGKLTKMRAAIVREDSLAKFAKECHFDNYILLGKGEEASGGRTRASLLCDLFEAFLGALYLDQKVGAAKKFIEDVIFPKIDAGAFSHEMDHKTQLQEVLQRKGDVSIEYRLIKEEGPAHDRTFFTEVYMNGELIGLGQGKSKKLAEQDAAERALKSIPQ | – | 2500 |
